Assay results reported in patent US20030158083A1, “Method of effecting angiogenesis by modulating the function of a novel endothelia phosphatase” (The Procter & Gamble Company, priority 2002, published 2003).

Key:
VEGF receptor-2 [1] = biological target: T1, VEGF receptor-2 (Homo sapiens, UniProt P35968); assay: Dephosphorylation of 32P-labeled VEGF receptor-2; type: biochemical; conditions: incubated overnight; data not shown
T1 construct: Co-immunoprecipitation of full-length KAPh with full-length VEGF receptor-2; expressed in transfected cells

[2] = Peptide phosphatase assay (BIOMOL green); type: biochemical; conditions: any peptide substrates examined; data not shown
Tie 1 = assay: GST pull-down association assay, Tie 1; type: binding, human; conditions: wild-type and kinase-inactive mutant
Description: (§1) Recombinant VEGFR-1 kinase (wild-type and K862R mutant), VEGFR2 kinase (wild-type and K870R mutant), Tie1 kinase (wild-type and K871R mutant), and Tie2 kinase (wild-type and K856R mutant) were expressed as glutathione S-transferase (GST) fusion proteins in Sf9 cells using a baculovirus expression system. Briefly, the intracellular domain of each receptor tyrosine kinase was generated as an in-frame GST fusion using the pAcGHLT baculovirus transfer vector (Pharmingen, San Diego, Calif.). Each baculovirus transfer vector construct was cotransfected with BaculoGold (Pharmingen, San Diego, Calif.) linearized AcNPV baculovirus DNA into Sf9 cells for the generation of recombinant baculoviruses. Five days post-transfection, recombinant baculoviruses were harvested and amplified by re-infection of Sf9 cells. Each amplified baculovirus was then used to infect Sf9 cells for the expression of the recombinant kinases. […]
(§2) The immobilized, autophosphorylated kinases were then incubated with HEK 293 cell lysates which overexpressed either the KAPh SH2 domain or KAPh full-length protein. […] KAPh protein that associated with the recombinant kinases was analyzed by Western blot using a chemiluminescence detection system (Amersham Pharmacia, Piscataway, N.J.).

Tie 2 = assay: GST pull-down association assay, Tie 2; type: binding, human; conditions: wild-type and kinase-inactive mutant
Description: as §1, §2

[3] = biological target: T2, human VEGF receptor-2 (KDR) (Homo sapiens, UniProt P35968, Y951F); assay: GST pull-down association assay, VEGFR2; type: binding; conditions: GST fusion Y951F versus wild-type
T2 construct: the intracellular domain of each receptor tyrosine kinase was generated as an in-frame GST fusion; made in house; host or cells: Sf9 insect cells (baculovirus)

[4] = Phosphatase activity with fluorogenic substrate DiFMUP; type: biochemical
Experimental: Purified, recombinant KAPh phosphatase domain (amino acids 83-464 SEQ ID NO 4) (100 μg/mL) and full-length PTEN (amino acids 1-403) (100 μg/mL) were each mixed with a fluorogenic phosphatase substrate 6,8-difluoro-4-methylumbelliferyl phosphate (DiFMUP) (Molecular Probes, Eugene, Oreg.) at a final concentration of a 100 μM in assay buffer (10 mM sodium acetate, pH 6.0, 150 mM NaCl, 5 mM DTT). Following incubation at ambient temperature for 15 or 60 min., the fluorescence intensity of the 6,8-difluoro-4-methylumbelliferone (DiFMU) product was measured in triplicate and used as an assessment of phosphatase activity. A Victor 5 microplate reader from Wallac (Turku, Finland) was used to read the fluorescence intensity from 384-well microplates (Corning Inc., Corning, N.Y.).

VEGF receptor-2 [5] = biological target: T1, VEGF receptor-2; assay: Co-immunoprecipitation with VEGF receptor-2 in HEK 293 cells; type: cell-based; conditions: HEK 293 VEGFR2 stable cells, 1 nM VEGF 5 min or untreated, anti-VEGFR2 IP
Experimental: Human umbilical vein endothelial cells (HUVEC) obtained from Clonetics (Walkersville, Md.) were cultured in endothelial growth medium (Clonetics) and were used up to passage 3. HEK 293 cells obtained from the American Type Culture Collection (Manasses, Va.) were cultured in cell growth medium (Dulbecco's modified Eagle's medium supplemented with 10% fetal bovine serum, 1% L-glutamine, 1% nonessential amino acids, and 1% antimycotics). For stable expression, hVEGFR2 was subcloned into pLNCX (Clontech, Palo Alto, Calif.), […] transfected into HEK 293 cells, and selected in the presence of Geneticin. The HEK 293 VEGFR2 clonal cell line was transiently transfected with either the SH2 domain or full-length KAPh in the mammalian expression vector pcDNA4/HisMax (Invitrogen, Carlsbad, Calif.). All constructs were transfected using LipofectAMINE PLUS (Life Technologies, Rockville, Md.) in serum-free DMEM according to the manufacturer's instructions.
HEK 293 cells that stably expressed the VEGF receptor-2 were transiently transfected to express the KAPh SH2 domain or full-length KAPh were treated with 1 nM VEGF or left untreated for 5 min. The cells were lysed in 1% triton lysis buffer with protease inhibitors. Insoluble debris was removed from the lysates by centrifugation at 14,000×g for 10 min at 4° C. […]

human VEGF receptor-1 = biological target: T3, human VEGF receptor-1 (Homo sapiens, UniProt P17948); assay: GST pull-down association assay, VEGFR-1; type: binding; conditions: HEK 293 lysate expressing His-tagged full-length KAPh
T3 construct: the intracellular domain of each receptor tyrosine kinase was generated as an in-frame GST fusion; made in house; host or cells: Sf9 insect cells (baculovirus)
T3 sequence (P17948 781-1338 limits assumed): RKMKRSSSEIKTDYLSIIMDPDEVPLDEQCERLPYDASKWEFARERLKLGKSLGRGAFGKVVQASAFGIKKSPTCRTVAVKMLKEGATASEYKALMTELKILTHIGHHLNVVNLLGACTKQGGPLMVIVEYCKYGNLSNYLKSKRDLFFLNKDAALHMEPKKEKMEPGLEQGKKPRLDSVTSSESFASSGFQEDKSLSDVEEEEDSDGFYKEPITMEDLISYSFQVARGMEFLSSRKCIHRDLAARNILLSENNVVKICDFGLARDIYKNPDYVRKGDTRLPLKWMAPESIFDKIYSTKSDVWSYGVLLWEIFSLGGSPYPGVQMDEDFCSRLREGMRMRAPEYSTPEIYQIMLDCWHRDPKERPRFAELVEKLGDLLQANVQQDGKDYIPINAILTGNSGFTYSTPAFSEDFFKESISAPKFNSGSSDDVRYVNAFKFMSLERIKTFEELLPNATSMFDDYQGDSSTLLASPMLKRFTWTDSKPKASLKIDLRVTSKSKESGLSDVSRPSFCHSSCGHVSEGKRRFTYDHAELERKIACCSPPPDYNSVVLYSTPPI
Description: as §1, §2

T1 sequence (P35968 20-1356): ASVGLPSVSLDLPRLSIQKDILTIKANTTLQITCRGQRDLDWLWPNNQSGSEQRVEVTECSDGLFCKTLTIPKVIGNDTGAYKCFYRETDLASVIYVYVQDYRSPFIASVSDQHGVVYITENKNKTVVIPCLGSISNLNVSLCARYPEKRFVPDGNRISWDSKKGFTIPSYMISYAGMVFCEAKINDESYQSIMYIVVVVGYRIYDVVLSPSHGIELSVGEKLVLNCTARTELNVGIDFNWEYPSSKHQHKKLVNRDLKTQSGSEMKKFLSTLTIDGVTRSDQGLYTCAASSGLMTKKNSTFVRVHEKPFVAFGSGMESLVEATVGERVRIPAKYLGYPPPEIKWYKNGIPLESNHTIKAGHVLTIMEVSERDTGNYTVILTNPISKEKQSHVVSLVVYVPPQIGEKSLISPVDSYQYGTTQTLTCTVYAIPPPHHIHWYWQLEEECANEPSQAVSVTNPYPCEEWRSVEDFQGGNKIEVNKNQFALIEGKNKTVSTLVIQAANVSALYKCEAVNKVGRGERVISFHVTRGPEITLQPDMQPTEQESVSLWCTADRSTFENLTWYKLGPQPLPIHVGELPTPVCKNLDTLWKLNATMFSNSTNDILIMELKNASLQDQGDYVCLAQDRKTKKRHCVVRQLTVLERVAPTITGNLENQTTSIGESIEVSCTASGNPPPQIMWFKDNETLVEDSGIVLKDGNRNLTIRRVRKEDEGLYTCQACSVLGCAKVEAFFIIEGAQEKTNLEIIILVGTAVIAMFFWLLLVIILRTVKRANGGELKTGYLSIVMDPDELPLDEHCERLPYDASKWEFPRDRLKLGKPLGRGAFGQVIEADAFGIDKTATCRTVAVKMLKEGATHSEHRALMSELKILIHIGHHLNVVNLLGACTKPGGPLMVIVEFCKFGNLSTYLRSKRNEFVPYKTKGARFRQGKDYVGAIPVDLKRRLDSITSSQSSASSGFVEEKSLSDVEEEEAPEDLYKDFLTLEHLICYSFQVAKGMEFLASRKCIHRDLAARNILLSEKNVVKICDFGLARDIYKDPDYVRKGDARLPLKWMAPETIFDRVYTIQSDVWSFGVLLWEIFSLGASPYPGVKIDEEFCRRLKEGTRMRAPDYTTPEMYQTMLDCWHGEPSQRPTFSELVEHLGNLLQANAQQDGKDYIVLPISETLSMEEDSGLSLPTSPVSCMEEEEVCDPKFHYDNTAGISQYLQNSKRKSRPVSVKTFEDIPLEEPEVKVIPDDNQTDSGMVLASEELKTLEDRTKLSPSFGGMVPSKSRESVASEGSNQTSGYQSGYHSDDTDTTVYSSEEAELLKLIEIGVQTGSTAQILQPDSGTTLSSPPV
T2 sequence (P35968 790-1356 Y951F): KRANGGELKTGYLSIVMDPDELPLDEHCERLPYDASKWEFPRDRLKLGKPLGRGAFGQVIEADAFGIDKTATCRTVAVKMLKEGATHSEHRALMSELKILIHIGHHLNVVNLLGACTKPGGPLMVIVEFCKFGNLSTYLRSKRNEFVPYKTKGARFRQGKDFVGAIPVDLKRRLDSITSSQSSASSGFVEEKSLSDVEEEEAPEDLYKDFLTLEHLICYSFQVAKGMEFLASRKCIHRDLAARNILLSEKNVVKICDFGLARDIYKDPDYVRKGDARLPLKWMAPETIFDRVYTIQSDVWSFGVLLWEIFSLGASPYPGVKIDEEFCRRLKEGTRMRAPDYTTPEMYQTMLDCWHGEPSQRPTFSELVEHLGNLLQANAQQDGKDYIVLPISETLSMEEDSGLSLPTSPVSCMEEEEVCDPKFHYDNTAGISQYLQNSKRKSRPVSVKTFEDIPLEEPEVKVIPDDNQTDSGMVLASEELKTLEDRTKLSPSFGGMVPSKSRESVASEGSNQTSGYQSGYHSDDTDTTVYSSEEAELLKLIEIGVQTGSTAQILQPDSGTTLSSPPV

B1: KAPh: novel human KDR Associated Phosphatase protein, full-length sequence SEQ ID NOS 1 and 2 (protein, listed as Homo sapiens)
chain: MKPRKAEPHSFREKVFRKKPPVCAVCKVTIDGTGVSCRVCKVATHRKCEAKVTSACQALPPVELRRNTAPVRRIEHLGSTKSLNHSKQRSTLPRSFSLDPLMERRWDLDLTYVTERILAAAFPARPDEQRHRGHLRELAHVLQSKHRDKYLLFNLSEKRHDLTRLNPKVQDFGWPELHAPPLDKLCSICKAMETWLSADPQHVVVLYCKGNKGKLGVIVSAYMHYSKISAGADQALATLTMRKFCEDKVATELQPSQRRYISYFSGLLSGSIRMNSSPLFLHYVLIPMLPAFEPGTGFQPFLKIYQSMQLVYTSGVYHIAGPGPQQLCISLEPALLLKGDVMVTCYHKGGRGTDRTLVFRVQFHTCTIHGPQLTFPKDQLDEAWTDERFPFQASVEFVFSSSPEKIKGSTPRNDPSVSVDYNTTEPAVRWDSYENFNQHHEDSVDGSLTHTRGPLDGSPYAQVQRPPRQTPPAPSPEPPPPPMLSVSSDSGHSSTLTTEPAAESPGRPPPTAAERQELDRLLGGCGVASGGRGAGRETAILDDEEQPTVGGGPHLGVYPGHRPGLSRHCSCRQGYREPCGVPNGGYYRPEGTLERRRLAYGGYEGSPQGYAEASMEKRRLCRSLSEGLYPYPPEMGKPATGDFGYRAPGYREVVILEDPGLPALYPCPACEEKLALPTAALYGLRLEREAGEGWASEAGKPLLHPVRPGHPLPLLLPACGHHHAPMPDYSCLKPPKAGEEGHEGCSYTMCPEGRYGHPGYPALVTYSYGGAVPSYCPAYGRVPHSCGSPGEGRGYPSPGAHSPRAGSISPGSPPYPQSRKLSYEIPTEEGGDRYPLPGHLASAGPLASAESLEPVSWREGPSGHSTLPRSPRDAPCSASSELSGPSTPLHTSSPVQGKESTRRQDTRSPTSAPTQRLSPGEALPPVSQAGTGKAPELPSGSGPEPLAPSPVSPTFPPSSPSDWPQERSPGGHSDGASPRSPVPTTLPGLRHAPWQGPRGPPDSPDGSPLTPVPSQMPWLVASPEPPQSSPTPAFPLAASYDTNGLSQPPLPEKRHLPGPGQQPGPWGPEQASSPARGISHHVTFAPLLSDNVPQTPEPPTQESQSNVKFVQDTSKFWYKPHLSRDQAIALLKDKDPGAFLIRDSHSFQGAYGLALKVATPPPSAQPWKGDPVEQLVRHFLIETGPKGVKIKGCPSEPYFGSLSALVSQHSISPISLPCCLRILSKDPLEETPEAPVPTNMSTAADLLRQGAACSVLYLTSVETESLTGPQAVARASSAALSCSPRPTPAVVHFKVSAQGITLTDNQRKLFFRRHYPVNSITFSSTDPQDRRWTNPDGTTSKIFGFVAKKPGSPWENVCHLFAELDPDQPAGAIVTFITKVLLGQRK
change in phosphorylation of 32P-labeled VEGF receptor-2 (VEGF receptor-2 [1]): unable to detect a change in phosphorylation
phosphatase activity using peptide substrates [2]: unable to detect significant, reproducible phosphatase activity
interaction with GST Tie 1 (Tie 1): no interaction
interaction with GST Tie 2 (Tie 2): no interaction
association with VEGFR2 Y951F mutant [3]: no significant change in association
fluorescent product (DiFMU) generated, fold over buffer control ([4]; 100 μg/mL protein, 100 μM DiFMUP, pH 6.0, ambient temperature, 60 min incubation): ~10 fold
phosphatase activity against DiFMUP relative to PTEN ([4]; KAPh versus PTEN): 1- to 2 fold
co-immunoprecipitation with VEGFR2 (VEGF receptor-2 [5]): detected in cells stimulated with VEGF
interaction with GST VEGFR-1, wild-type versus K862R (human VEGF receptor-1): weak, but reproducible, autophosphorylation-dependent interaction
